Results from the supplement of paper PMC10567573.

B1: GNB5 (parent)
chain: DINSVRYYPSGDAFASGSDDATCR

Variants of: B1
Test: protein stability index of a GFP-peptide fusion (GPS, HEK-293T) (PSI 1-6); higher = more stable
Settings: c terminus: a fixed tail appended
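Note: lentivirally expressed fusions sorted by FACS into six bins by GFP to DsRed ratio, PSI derived from sequencing read proportions per bin multiplied by bin number.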

Protein stability index of substitutions, site by site:
D12: S 3.46; T 3.31; C 2.66; N 3.06; A 3.4; G 3.54; F 2.69; Y 3.19; E 3.61; K 3; L 2.87; R 3.33; V 2.94; M 2.7; P 3.34; W 2.77; Q 3.46; I 3.08; H 3.34
D19: A 2.88; C 2.85; E 4.15; F 2.39
G17: F 2.93; D 4.4; R 3.65; S 3.84; W 3.07; T 3.63; H 3.4; M 3.29; A 3.74; Q 3.75; K 3.65; N 3.68; E 4.34; C 3.66; L 3.12; I 3.21; V 3.65; P 4.05; Y 3.29
F14: G 5.08; Q 4.44; V 4.28; H 3.99; K 4.12; C 4.16; T 4.75; I 4.49; W 3.94; A 4.21; Y 4.09; M 3.85; S 4.64; E 5; R 3.64; N 3.8; L 4.1; P 4.38; D 4.16
G11: A 3.61; I 3.59; M 4.02; T 3.74; V 3.46; R 3.67; L 3.9; F 3.61; K 3.68; Y 3.48; D 4.4; W 2.91; P 3.93; Q 3.91; E 4.72; C 3.23; S 4.09; N 3.81; H 3.62
S16: G 4.28; E 4.55; K 3.34; N 4.15; H 3.84; W 3.15; I 3.27; D 4.27; M 3.29; V 3.84; C 3.66; L 3.58; Q 3.78; P 3.88; A 4.04; Y 3.55; F 3.46; T 3.49; R 3.77
S18: P 3.74; F 3.26; T 4.06; I 3.56; L 3.55; C 3.88; A 3.35; D 4.24; V 3.33; E 4.43; K 3.55; H 3.82; Q 3.81; G 4.48; M 3.49; R 3.12; W 3.02; Y 3.43; N 4
A13: D 4.47; W 3.42; G 4.03; R 3.81; L 3.44; Q 4.4; Y 3.22; S 3.88; F 3.12; M 3.69; N 3.98; C 3.71; H 4.02; P 4.14; T 4; E 4.66; K 3.53; I 3.28; V 3.69
A15: T 3.63; V 3.91; I 3.43; K 3.58; L 3.73; Q 3.86; Y 3.23; C 3.66; N 4.12; S 3.66; M 3.57; G 3.51; E 4.09; D 4.16; P 3.92; H 3.7; R 2.99; F 2.83; W 3.29
S10: K 3.71; N 3.95; M 3.43; W 3.35; R 3.4; T 3.68; Y 3.1; L 3.43; P 4.23; V 3.73; Q 4.08
